Sequences and labels used below:
B1: recombinant C3a des-Arg^77 (ligand)
chain: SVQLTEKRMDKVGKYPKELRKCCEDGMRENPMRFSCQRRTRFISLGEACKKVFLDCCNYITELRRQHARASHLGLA
notes: Recombinant form, expressed and purified under non-denaturing conditions; also called C3adR^77
B2: recombinant His6-tagged C3a (ligand)
chain: not shown
notes: domain: C3a; Expressed and purified under denaturing conditions; not shown: His6 tag
B3: recombinant His6-tagged C5a (ligand, UniProt P01031 678-751, looked up)
chain: TLQKKIEEIAAKYKHSVVKKCCYDGACVNNDETCEQRAARISLGPRCIKAFTECCVVASQLRANISHKDMQLGR
notes: domain: C5a; Expressed and purified under denaturing conditions; not shown: His6 tag
B4: recombinant His6-tagged C5a des-Arg^74 (ligand, UniProt P01031 678-750, looked up)
chain: TLQKKIEEIAAKYKHSVVKKCCYDGACVNNDETCEQRAARISLGPRCIKAFTECCVVASQLRANISHKDMQLG
notes: domain: C5a des-Arg^74; also called C5adR^74; not shown: His6 tag
B5: recombinant C4a (ligand, UniProt P0C0L4 680-756, looked up)
chain: NVNFQKAINEKLGQYASPTAKRCCQDGVTRLPMMRSCEQRAARVQQPDCREPFLSCCQFAESLRKKSRDKGQAGLQR
notes: domain: C4a; Expressed and purified under non-denaturing conditions
B6: recombinant C4a des-Arg^77 (ligand, UniProt P0C0L4 680-755, looked up)
chain: NVNFQKAINEKLGQYASPTAKRCCQDGVTRLPMMRSCEQRAARVQQPDCREPFLSCCQFAESLRKKSRDKGQAGLQ
notes: domain: C4a des-Arg^77; Expressed and purified under non-denaturing conditions; also called C4adR^77
B7: plasma ASP (C3a des-Arg^77), purified from human plasma (ligand)
chain: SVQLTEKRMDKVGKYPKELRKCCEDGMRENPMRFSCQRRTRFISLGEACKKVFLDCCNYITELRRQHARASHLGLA
modifications: FLUOS (fluorescein) label in the flow cytometry assays, ^125I label in one assay; labelled residues not stated
notes: Unlabelled in the functional assays; also called acylation stimulating protein; FLUOS-ASP
B8: plasma C3a, purified human C3a (ligand)
chain: not shown
modifications: FLUOS (fluorescein) label; labelled residues not stated
notes: domain: C3a; also called FLUOS-C3a

T3 sequence (Q9P296 whole entry): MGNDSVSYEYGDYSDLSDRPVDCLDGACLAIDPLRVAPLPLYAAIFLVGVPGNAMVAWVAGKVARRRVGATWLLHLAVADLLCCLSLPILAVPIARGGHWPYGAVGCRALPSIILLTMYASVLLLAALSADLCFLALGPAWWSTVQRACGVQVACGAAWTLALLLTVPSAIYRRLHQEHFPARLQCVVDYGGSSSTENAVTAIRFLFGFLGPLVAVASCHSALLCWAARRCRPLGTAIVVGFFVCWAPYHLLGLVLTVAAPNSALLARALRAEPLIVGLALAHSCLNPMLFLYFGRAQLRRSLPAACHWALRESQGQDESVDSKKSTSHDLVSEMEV

One assay concerns the target T1, human C3a receptor (C3aR) (human, UniProt Q16581 1-482).
T1 construct: whole, on cells
T1 sequence (looked up): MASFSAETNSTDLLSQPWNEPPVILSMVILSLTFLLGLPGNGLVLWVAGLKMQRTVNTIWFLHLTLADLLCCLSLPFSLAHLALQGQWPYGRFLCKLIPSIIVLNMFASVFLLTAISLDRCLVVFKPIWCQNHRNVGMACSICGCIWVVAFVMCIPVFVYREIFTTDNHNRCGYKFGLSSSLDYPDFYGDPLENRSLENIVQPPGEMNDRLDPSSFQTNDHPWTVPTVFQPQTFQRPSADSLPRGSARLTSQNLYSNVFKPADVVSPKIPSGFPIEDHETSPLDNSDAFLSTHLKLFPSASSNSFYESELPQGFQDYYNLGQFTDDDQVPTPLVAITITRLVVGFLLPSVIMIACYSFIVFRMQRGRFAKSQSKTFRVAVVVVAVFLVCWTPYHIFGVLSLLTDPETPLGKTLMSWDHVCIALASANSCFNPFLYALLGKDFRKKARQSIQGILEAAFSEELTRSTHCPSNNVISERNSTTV
The assay can be described thus: radioligand competition on C3aR-transfected RBL cells.
Regarding B1, the binding result is listed as “no binding (tested: pD2 <4)”.

The next assay addresses T2, human CD88 (C5a receptor) (human, UniProt P21730 1-350).
T2 construct: whole, on cells
T2 sequence (looked up): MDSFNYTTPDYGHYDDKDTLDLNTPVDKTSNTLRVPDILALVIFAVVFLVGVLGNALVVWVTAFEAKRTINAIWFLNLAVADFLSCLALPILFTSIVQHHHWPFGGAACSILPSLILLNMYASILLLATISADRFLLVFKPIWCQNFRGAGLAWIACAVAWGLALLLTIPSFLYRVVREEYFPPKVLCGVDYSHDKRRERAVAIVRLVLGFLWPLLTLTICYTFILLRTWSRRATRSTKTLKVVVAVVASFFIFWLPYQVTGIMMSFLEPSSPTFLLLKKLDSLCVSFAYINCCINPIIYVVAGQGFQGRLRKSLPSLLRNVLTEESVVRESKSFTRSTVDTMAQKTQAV
Briefly: competition with 50 pM 125I-C5a on CD88-transfected RBL cells, 4 C. The method, then: (§1) Competition binding assays were performed using 50 pM ¹²⁵I-C5a or ¹²⁵I-C3a (NEN) on adherent C5aR-transfected or C5L2-transfected RBL cells in 96-well microtiter plates (55 000/well) at 4° C. as described previously (22). Competition curves were generated by pre-incubating adherent cells with increasing concentrations of unlabelled complement fragments. The IC₅₀, standard error values and linear regression analyses were obtained by using GraphPad Prism 2.0.
For the molecule B2, the IC50 is 230000 nM and the pD2 is 4.64 -log IC50.
Take B3: the half-inhibitory concentration (IC50) came to 20.5 nM and the pD2 was 7.69 -log IC50.
The like results for B4 were, in that order, 411 nM and 6.39 -log IC50.
For the molecule B5, the IC50 turned out to be 4440 nM and the pD2 is 5.35 -log IC50.

The next assay addresses T3, human C5L2 (human, UniProt Q9P296 1-337). The assay can be described thus: cell-based or functional assay.
For B6, the “activity in the degranulation-enhancement assay against C3a des-Arg^77, C5L2-transfected RBL cells” value was 230 fold.

The target of the next assay is T1, human C3a receptor (C3aR). Briefly: radioligand competition on C3aR-transfected RBL cells (radioligand not given).
For the molecule B6, the concentration for half-maximal inhibition (IC50) came to 100000 nM and the pD2 is 4.99 -log IC50.
In the same order, the values of B2 are 155 nM and 6.81 -log IC50.
In the same order, the values of B3 are 2900 nM and 5.54 -log IC50.
The like results for B4 were, in that order, 9670 nM and 5.02 -log IC50.
Consider B1, for which the pD2 was < 4 -log IC50.
Turning to B5, the IC50 came out at 250 nM and the pD2 is 6.6 -log IC50.

Another assay addresses T1, human C3a receptor (C3aR). The assay can be described thus: flow cytometry, FLUOS-ASP on HEK 293 cells transiently transfected with C3aR. The procedure: (§2) HEK 293 cells were transfected with C3aR (A) or C5L2 (B) and three days later cells were incubated for 30 minutes with the indicated concentrations of FLUOS-labelled C3a or ASP, respectively. Binding/uptake was assessed by FACS, and the percentage of cells above a fluorescence intensity of 8 was determined. The fluorescence histograms at the highest and lowest ligand concentrations are shown in the insets;
(§3) Recombinant C3a des-Arg⁷⁷ can clearly compete with ¹²⁵I-C3a for binding to C5L2, so we then directly measured the affinity of C3a des-Arg⁷⁷ for C5L2, using protein purified from human plasma as ASP. ASP and purified human C3a were labelled with FLUOS. Increasing concentrations of ASP were incubated with HEK 293 cells transiently transfected with C5L2 and binding and uptake assessed by flow cytometry (FIG. 2A). FLUOS-ASP clearly binds to C5L2, with half maximal fluorescence intensity at approximately 3 nM, whereas mock-tansfected cells show no binding of ASP even at a high concentration of 10 nM. For comparison purposes, the binding of FLUOS-C3a and FLUOS-ASP to HEK 293 cells transiently transfected with C3aR is shown (FIG. 2B). […] Thus, C5L2 has binding characteristics that overlap with both CD88 and C3aR but also the unique ability to bind ASP/C3a des-Arg⁷⁷.
For B7, the binding result is “no binding”.

Another assay has as its target T3, human C5L2. Briefly: competition with 50 pM 125I-C5a on C5L2-transfected RBL cells, 4 C. The method, then: as §1
As to B6, the IC50 worked out at 170000 nM and the pD2 is 4.72 -log IC50.
In the case of B3, the IC50 stood at 8.17 nM and the pD2 was 8.09 -log IC50.
In the same order, the values of B4 are 36.9 nM and 7.43 -log IC50.
The like results for B5 were, in that order, 3790 nM and 5.42 -log IC50.

The next assay has as its target T3, human C5L2. The assay can be described thus: radioligand competition on transfected RBL cells (Table I).
In the case of B6, the “fold higher affinity for C5L2 than for C3aR” value came out at 1000 fold.

In the next assay the target is T1, human C3a receptor (C3aR). Briefly: flow cytometry, binding/uptake of FLUOS-C3a on HEK 293 cells transiently transfected with C3aR, 30 min at 37 C. The method, then:
as §2, §3
B8 gave an EC50 of 2.5 nM.

In a further assay the target is T3, human C5L2. Briefly: competition with 50 pM 125I-C3a on C5L2-transfected RBL cells, 4 C. The procedure: as §1
For B6, the IC50 amounted to 177 nM and the pD2 is 6.75 -log IC50.
The like results for B3 were, in that order, 293 nM and 6.53 -log IC50.
Turning to B4, the pD2 is < 3 -log IC50.
Take B5: the half-maximal inhibitory concentration (IC50) was 485 nM and the pD2 is 6.31 -log IC50.

For the origin of these results see US20060121462A1 (published 2006).
